Test results: the nanobody polyreactivity screen of Harvey et al. (2022)

Assay: yeast display, Sf9 membrane polyspecificity reagent, FACS + sequencing; frameworks hold sequencing errors
Method in brief: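 A nanobody's polyreactivity label depends on the gate it was sorted from. Yeast display cells were stained with 10% biotinylated, detergent-solubilized Sf9 membrane reagent for 1 hour at 4 °C, enriched on streptavidin microbeads and sorted by FACS. The low and high (top ~1%) gates were set on anti-HA fluorescence for expression and streptavidin fluorescence for reagent binding.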

Sequence	polyreactivity (PSR sort gate)
QVQLVESGGGLVQAGGSLRLSCAASGLTFLWYAMGWYRQAPGKERELVAAITSGGRTKYADSVKGRFTISRDNAKNTVYLQMNSLKPEDTAVYYCAAYTQWWVYDYWGQGTQVTVSS	high polyreactivity
QVHLVESGGGLVQAGGSLRLSCAASGRTIVGYDMGWYRQAPGKEMELVAAISSRGGSTYYADSVKGRFTISRDNAKNTVYLQRNSLKPEDTAVYYCAALWYVGYGPVDYWGQGTQVTVSS	high polyreactivity
QVQLVESGGGLVQAGGSLRLSCAASGSTFPTNAMGWYRQAPGKERELVADINGNGGRTYYADSVKGRFTISRDNAKNTVYLQMNSLKPEDTAVYYCAVEPDVYPSWYYYVDYDYWGQGTQVTVSS	low polyreactivity
QVQLVESGGGLVQAGGSLRLSCAASGSIIGGNAMGWYRQAPGKERELVAAIRSGGRTNYADSVKGRFTISRDNAKNTVYLQMNSLKPEDTAVYYCAADYYLGGGYWGQGTQVTVSS	low polyreactivity
QVQLVESGGGLDQAGGSLRLSCAASGFTFASYAMGWYRQAPGKERELLAAITRSGGSTYYADSVKGRFTISRDNAKNTVYLHLTSLKPEDTAVYYCATDDEQHYYLLEYYYWGQGTQVTVSS	low polyreactivity
QVQLQESGGGLVQAGGSLRLSCAASGSIARYYDMGWYLQAPGKEREFVAGISGGAISYYADSVKGRLTISRDNAKNTVYLQMNSLKPEDTAVYYCAADTCVYQYHSYWGQGTQVTVSS	low polyreactivity
QVQLVESGGGLVQAGGSLRLSCAASGSTFDTYAKGWYRQAPGQERELVAAISYRGGNTYYADSVKGRFTISRDNAKNTVYLQMNSLKPEDTAVYYCNAGVSIGRSRRYDYWGQGTHVTVSS	low polyreactivity
QVQLVESGGGLVQAGGSLRLSCAASGSTFGTNAMGWYRQAPGKERELVAAISTGGSTYYADSVKGRFTISRDNAKNTVYLQMNSLKPEDNAVYYCAALADYVRRASDYWGQGTQVTVSS	low polyreactivity
QVQLVESGGGLVQAGGSLRLSCAASGSIFWANAMGWYRQAPGKERELVAAISSSGGRTYYADSVKGRFTISRDNAKNTVYLQMNSLKPEDTAVYYCNKLRLAYYEQGDYWGQGTQVTVSS	high polyreactivity
QVQLVESGGGLVQAGGSLRLSCAASGYTFSYYAMGWYRQAPGKERELVAAITSTGSTYYADSVKGRFTISRDNAKNTDYFQMNSLKPEDTEVYYCNVDVATVGPVDYWGQGTQVTVSS	low polyreactivity
QVQLVESGGGLVQAGGSLRLSCAASGSIFNIYAMGWYRQAPGKERELVATITGIADSTYYADSVKGRFTISRDNAKNTVYLQMNSLKPEDTAVYFCAAEKYVAEYEYWGQGTQVTVSS	low polyreactivity
QVQLVESGGGLVQAGGSLRLSCAASGRIRYAMGWYRQAPGKERELVAGITWSGGRTYYADSVKGRFTISRDNAKNTVYLQMNSLKPEDTAVYYCAAATPYRYNYWGQGTQVTVSA	high polyreactivity
QVQLVESGGGLVQAGGSLRLSCASSGSTFYTNAMGWYRQAPGKESEFVDAISWSGSSTYADSVKGRFTISRDNAKITVYLQMNSLKPEDTAVYYCAKATSSLYHYRYDYWGQGTQVTVSS	low polyreactivity
QVQLVESGGGLVQAGGSLRLSCAASGSIFDQYAMGWYRQAPGKERELVAGISSNGGTSTYYADSVKGRFTISRDNAKNTVYLQMNSLKAEDTAVYYCAAQSHYVDQYGYWGQGTQVTVSS	low polyreactivity
QVQLVESGGGLVKAGGSLRLSCAASGSIFPYNAMGWYRQAPGKERELVATISSGGSTNYADSVKGRFTISRDNAKNTVYLQMNSMKPEDTAVYYCAADVSVFYYAPNYWGDIEYGYWGQGTQVTVSS	low polyreactivity
QVQLVESGGGLVQAGGSLRLSCAASGSTFSYNAMGWYRQAPGKERELVAAISRGDVSTYYADSVKGRFTISRDNAKNTVYLQMNSLKPEDSAVYYWAAYWYGSQYKWRYDYWGQGTQGTVSS	low polyreactivity
QGQRVESAGGLVQAGGSLRLSCAASGITFARNVMGWSRQAPGQERELVAAISRGDSTYYADSVKGRFTISRDNAKNTVYLQLNSLKPEDTAVYYCAAAVKHVAYHYNYWGQGTQVTVSS	high polyreactivity
QVQLVESGGGIVQAGGSLRLSCAASGRIFVLNAMGWYRQAPGKERELVAAISKSAGSTYYADSVKGRFTISRDNAKNTVYLQMNSLKPEDTAVYYCNVGRRGHYLDAYDYWGQGTQVTVSS	high polyreactivity
QVQLVESGGGLVQAGGILRLSWAASGSTFTAYAMGWYRQAPGKERELVAAINTSGGNTYYADSVKGRFTISRDNAKNTVYFQMNSLKPEDTAVYYCAADYKARYSEKFDYWGQGTQVSVSS	low polyreactivity
QVQHVDSGGGLVQAAGSLRLSCAASGRTFGVYAMGWYRQAPGKERELVATITSVDRTNYADSVKGRFTISRENAKNTVYLLMNSLKPDDTAVYYCADVGRGPRYFYWGQGTQVTVSS	high polyreactivity
QVQLVESGGGLVQAGGSLRLSCAASGNSFPYYDMGWYRQAPGKERELVAAITSSASGTYYADSVKGRFTISRDNAKNTVYLQMNSLKPEDNAVYYCAAGVFFFTFDYWGQGTQVTVSS	low polyreactivity
QVQLVESGGGLVQAGGSLRLSCAASGIIFYTNAMGWYRQAPGKEREFVAAINTSGGITYYADSVKGRFTISRDNAKNTVYLQMNSLKPEDTAVYYCAADQTYERHWVYYWGQGTQVTVSS	low polyreactivity

Sequence	polyreactivity (PSR sort gate)
QVQLVESGGGLVQAGGSLRLSCAASGSTFWANAMGWYRQAPGKERELVAAITSTGITYYADSVKGRFTISRDNAKNTVYLQMNSLKPEDTAVYYCNTRGTYRYDYWGQGTQVTVSS	low polyreactivity
QVQLVESGGGLVQAGGSLRLSCAASGRTFVVKAMGWYRQAPGKERELVAAITRRGGITYYADSVKGRITISRDNAKNTVYLQMNSLKPEDTAVSYCAADRSYYPDTRTTSGYNYWGQGTQVTVSS	low polyreactivity
QVQLVESGGGLVQAGGSLRLSCAASGRIFRYYAMGWYRQAPGKERELVATISGRGGSTYYADSVKGRFTISRDNAKNTVYLQMNSLKPEDTAVYYCNTVSTRYIYDYWGQGTQVTVSS	high polyreactivity
QGQLVESGGGLVQAGGSLRLSCAASGIIFGGYTMGWYRQAPGKERELVAAITKRTDRTYYADSVKGRFTISRDNAKNTVYLQMHSMKPEDTAVYYCATRGGITRPWYGYDYWGQGTQVTVSS	high polyreactivity
QVHLVESGGGLVQAGGSLRLSCAASGSIFNENAMGWYRQAPGKERELVATISRRGGSTYYADSVKGRFTISRDNAKNTVYLQMNSLKPEDTAVYYCARDIFWVVYWGQGTQVTVSS	high polyreactivity
QVQLVESGGGLVQAGGSLRLSCAASGSIFYKYAMGWYRQAPGKERELVASITSGGITNYADSVKGRFTISRDNAKNTVFLQMNSLKPEDTAVYYCNAANPYRRVGSFTYKYDYWGQGTQVTVSS	low polyreactivity
QVQLVESGGGLVQAGGSLSLSCAASGFTFYYYAMGWYRQAPGKERELVAAISTRDGNTYYADSVKGRFTISRDNAKNTVYLQMNSLKPEDTAVYYCAADYFRYYPYDYWGQGTQVTVSS	low polyreactivity
QVQLVESGGGLVQAGGSLRLSCAASGSTFSIYTMGWYRQAPGKERELVAAITRGGSTYYADSVKGRFTISRDNAKNTVYLQMNSLKPEDTAVYYCAADYVSYYRGGRYIELDYWGQGTQVTVSS	low polyreactivity
QVQLEESGGGLVQAGGILRLSCAASGSTFVNNAMGWYRQAPGKERELVAAITSGSRTKYADSVKGRFTMSLDNAKYTVYFQMNSLQPEDTAVYYWNTMRVGWGQGTQVTVSS	high polyreactivity
QVQLVDSGGGLVQAGGSLRLSCAASGRTFGAYDMGWYRQAPGKERELVAAISSGATTNYADSVKGRFTISRDNAKNTVYLQMNSLKPEDTAVYYCAASVYRYIYAFNYWGQGTQVTVSS	low polyreactivity
QVQLVESGGGLVQAGGSLRLSCAASGIIFYGYAMGWYRQATGKERELVAAISSGGGTNYADSVKGRFTISRDNAKNTVYLQMNSLKPEDTAVYYCAARQYRYYYWGQGTQVTVSS	high polyreactivity
QVQLVESGGGLVQAGGSLRLSCAASGFTFYYYAMGWYRQAPGKERELVARITSGGSTYYADSVKGRFTISRDNAMYTVYLQMNCLKPEDTAVYYCNVDVSVEVAYWGQGTQVTVSS	low polyreactivity
QVQLEESGGGLVQAGGSLRLSCAASGSIIWSYAMGWYRQAPGKERELVAVINWSGGSTYYADSVKGRFTISRDNAKNTVYLQMNSLKPEDTAVYYCNKDLGPTKRPFTFDYWGQGTQVTVSS	low polyreactivity
QVQLQESGGLVQAGGLRLSCAASGSDSYQEDMAWYRQAPGKERELVATISFGANTNYADSVKGRFTISRDNAKNTVYLQMNSLKPEDTAVYYCAAESLFDDYYGYWGQGTQVTVSS	low polyreactivity
QVQLVESGGGIVQAGGSLRLSCAASGSIFKRYAMGWYRQAPGKERELVAAISWSGGNTYYADSVKGRFTISRDNAKYTVYLQMNILKPEDTAVYYCNAGYSYFGPGRGRFRYYYWGQGTQVTVSS	high polyreactivity
QVQLVESGGGLVQAGGILRLSCAASGRTIDHYAKGSYRKAPGKERELVAAISTTGGSTYYADSVKGRFTISRDNAKNTVYLQMNSLKPADTAVYYCAARGLRTGGYWGQGTQVTVSS	high polyreactivity
QVQLVESGGGLVQAGGSLRLSCAASGSTPDGYGMGWYRQAPGKERELVAVITIGGGRTYYADSVKGRFTISRDNAKNTVYLQMNSLKAVDTAVYYCAAKGWRRYYIGDYWGQGTQVTVSS	high polyreactivity
QVQLVESGGGLVQAGGSLRLSCAASGLTFPFYVMGWYRQAPGKERELVAAISASGASTYYADSVKGRFTISRDNAKNTVYLQMNSLKPEDTAVYYCAALGYGFSYRYDYWGQGTQVTVSS	high polyreactivity
QVQLVESGGGLVQAGGSLRLSCAASGSIFDNNAMGWYRQAPGKERELVAAIRRTSTTYYADSVKGRFTISRDNAKNTVYLQMNSLKPEDTAVYYCAATYGSGYWYPRYYYWGQGTQVTVSS	high polyreactivity
QVQLVESGGGLVQAGGSLRLSCAASGSTFIANAMGWYRQAPGKERELVAAISASGDSTYYADSVKGRFTISRDNAKNTVYLQMNSLKPEDTAVYYCAADTSVHRHDYWGQGTQVTVSS	low polyreactivity
QVQLVESGGGLVQAGGSLRLSCAASGRIFDLNAMGWYSQAPGKERELVAAITTNDGDTYYADSVKGRFTISRDTAKNTVYLQMNSLKPEDTAVYYCAAVSGSTSEYEYWGQGTEVTVSS	low polyreactivity
